The term EC50 (read off the curve) denotes the concentration giving half of the maximal effect. In general, EC50 refers to the concentration needed to bring the measured effect to its halfway point.

Data on nine molecules can be found in patent publication US20200316195A1 (OSSIANIX, published 2020).

The target of experiment [1] is T1, recombinant human transferrin receptor 1 (rhTfR-1) (human, UniProt P02786 89-760).
T1 construct: extracellular domain; also called human TfR-1; human TfR1
Briefly: ELISA, purified VNAR monomer on plate-adsorbed rhTfR-1, HRP anti-FLAG [panel HUMAN TfR BINDING]. How it is done:
(§1) VNARs were purified from 500 mL bacterial cultures which were grown in auto-induction medium (Novagen) and periplasmic fractions were extracted by osmotic shock by resuspending bacteria in TES buffer (50 mM Tris, 1 mM EDTA, 20% Sucrose) mixed with an equal volume of TES diluted 1:5 in water. After 30 minutes on ice, lysates were clarified by centrifugation and the salt concentrations were adjusted to 500 mM NaCl and 10 mM imidazole in 1×PBS. Periplasmic extracts were then purified with Nickel-Sepharose resin (Qiagen), washed in 1×PBS, 10 mM imidazole, 500 mM NaCl, and then eluted in 1×PBS, 500 mM imidazole, 500 mM NaCl. The purified protein was then buffer-exchanged against PBS and concentrated by centrifugation with Vivaspin 20 filters (Sartorius, MWCO 5000). Endotoxin was removed using VivaPure Q mini column (Sartorius) and the protein was sterile filtered (0.22 μm). After estimating the protein concentration using Bradford reagent (Pierce), the purified protein was stored in frozen aliquots. EC50 binding curves of purified VNAR monomers to immobilized to human or mouse TfR-1 ([…]) were determined by standard protein ELISA an HRP-conjugate anti-FLAG M2 antibody. For pH binding sensitivity testing, purified monomer was bound at pH7 and then washed 3 times for 3 min at either pH5.2 or pH7.2.

Experiment [2] concerns the target T2, recombinant mouse transferrin receptor 1 (rmTfR-1) (mouse, UniProt Q62351 89-763).
T2 construct: extracellular domain; also called mouse TfR-1
The experiment in a line: ELISA, monomer bound at pH 7 to rmTfR-1, washed 3 x 3 min at pH 7.2 or pH 5.2, HRP anti-FLAG [panel VNAR H11 on mTfR-1]. How it is done: as §1
A general note: An ELISA detects its analyte on a solid surface through an enzyme-linked reagent.

Experiment [3] has as its target T1, recombinant human transferrin receptor …. Briefly: ELISA on plate-coated hTfR1 (Example 15, as in Example 1D) [panel hTfR1]. As for the experimental part: (§2) The binding specificity of H01-Fc and F02-Fc for hTfR-1 and hTfR-2 were determined by an ELISA as described in Example 1D. Anti-TfR-2 was used as a positive control for TfR-2 binding. […] Both H01-Fc […] F02 Fc bound hTfR-1 with high specificity (˜100 nM) and neither bound hTfR-2 (FIG. 18).

Experiment [4] deals with T3, human transferrin receptor 2 (hTfR-2) (human, UniProt Q9UP52 105-801, limits assumed).
T3 construct: also called human TfR-2
T3 sequence (looked up): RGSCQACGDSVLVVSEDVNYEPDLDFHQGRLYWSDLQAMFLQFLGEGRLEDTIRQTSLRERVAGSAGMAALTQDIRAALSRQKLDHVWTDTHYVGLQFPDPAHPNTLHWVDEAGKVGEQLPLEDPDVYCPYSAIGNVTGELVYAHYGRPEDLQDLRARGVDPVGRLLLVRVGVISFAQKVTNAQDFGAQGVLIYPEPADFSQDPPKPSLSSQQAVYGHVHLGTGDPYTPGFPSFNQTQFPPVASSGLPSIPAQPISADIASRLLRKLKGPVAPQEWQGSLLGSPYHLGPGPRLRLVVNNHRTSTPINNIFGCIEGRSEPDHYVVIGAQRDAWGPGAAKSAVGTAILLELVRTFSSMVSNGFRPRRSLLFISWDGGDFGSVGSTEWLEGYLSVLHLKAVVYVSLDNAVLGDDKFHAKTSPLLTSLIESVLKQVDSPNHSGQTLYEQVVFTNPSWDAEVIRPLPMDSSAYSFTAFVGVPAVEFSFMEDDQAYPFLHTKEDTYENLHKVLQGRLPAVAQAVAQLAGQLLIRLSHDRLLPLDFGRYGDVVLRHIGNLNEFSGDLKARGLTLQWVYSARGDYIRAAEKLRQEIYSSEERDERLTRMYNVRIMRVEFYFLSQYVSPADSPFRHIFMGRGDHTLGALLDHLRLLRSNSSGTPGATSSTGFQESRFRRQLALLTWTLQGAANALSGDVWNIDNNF
Briefly: ELISA on plate-coated hTfR2 (Example 15, as in Example 1D) [panel hTfR2]. How it is done:
as §2

Experiment [5] addresses T2, recombinant mouse transferrin receptor …. Briefly: competitive phage ELISA.
For experiment [6], the target named is T1, recombinant human transferrin receptor …. The experiment in a line: competitive phage ELISA.
The target is the same in experiment [7]. The experiment in a line: ELISA, monomer bound at pH 7 to rhTfR-1, washed 3 x 3 min at pH 7.2 or pH 5.2, HRP anti-FLAG [panel VNAR C11 on hTfR-1]. How it is done: as §1
Experiment [8] deals with T2, recombinant mouse transferrin receptor …. Briefly: ELISA, monomer bound at pH 7 to rmTfR-1, washed 3 x 3 min at pH 7.2 or pH 5.2, HRP anti-FLAG [panel VNAR C11 on mTfR-1]. How it is done: as §1
Experiment [9] has the same target. The experiment in a line: ELISA, monomer bound at pH 7 to rmTfR-1, washed 3 x 3 min at pH 7.2 or pH 5.2, HRP anti-FLAG [panel VNAR G02 on mTfR-1]. As for the experimental part: as §1
Experiment [10] deals with T1, recombinant human transferrin receptor …. The experiment in a line: ELISA, monomer bound at pH 7 to rhTfR-1, washed 3 x 3 min at pH 7.2 or pH 5.2, HRP anti-FLAG [panel VNAR G02 on hTfR-1]. How it is done: as §1
Experiment [11] concerns the target T2, recombinant mouse transferrin receptor …. The experiment in a line: ELISA, purified VNAR monomer on plate-adsorbed rmTfR-1, HRP anti-FLAG [panel MOUSE TfR BINDING]. As for the experimental part: as §1
The target is the same in experiment [12]. Briefly: EC50 on recombinant target, presumably ELISA as in Example 8B. How it is done:
(§3) To test whether the bispecific molecules retained binding to both transferrin receptor and BACE1, the purified proteins were titrated against either hTfR, mTfR, or BACE1 adsorbed to the solid phase of an ELISA plate. Binding was measured with an […] anti-human-Fc antibody (Example 8; Table 3).
(§4) To test whether the bispecific molecules retained binding to both transferrin receptor and BACE1, the purified proteins were titrated against hTfR, mTfR, or BACE1 adsorbed to the solid phase of an ELISA plate. Binding was measured with an HRP-labelled anti-human-Fc antibody.

Experiment [13] shares this target. The experiment in a line: ELISA; target adsorbed to plate; HRP anti-human-Fc detection. As for the experimental part: as §3, §4

T1 sequence (P02786 89-760): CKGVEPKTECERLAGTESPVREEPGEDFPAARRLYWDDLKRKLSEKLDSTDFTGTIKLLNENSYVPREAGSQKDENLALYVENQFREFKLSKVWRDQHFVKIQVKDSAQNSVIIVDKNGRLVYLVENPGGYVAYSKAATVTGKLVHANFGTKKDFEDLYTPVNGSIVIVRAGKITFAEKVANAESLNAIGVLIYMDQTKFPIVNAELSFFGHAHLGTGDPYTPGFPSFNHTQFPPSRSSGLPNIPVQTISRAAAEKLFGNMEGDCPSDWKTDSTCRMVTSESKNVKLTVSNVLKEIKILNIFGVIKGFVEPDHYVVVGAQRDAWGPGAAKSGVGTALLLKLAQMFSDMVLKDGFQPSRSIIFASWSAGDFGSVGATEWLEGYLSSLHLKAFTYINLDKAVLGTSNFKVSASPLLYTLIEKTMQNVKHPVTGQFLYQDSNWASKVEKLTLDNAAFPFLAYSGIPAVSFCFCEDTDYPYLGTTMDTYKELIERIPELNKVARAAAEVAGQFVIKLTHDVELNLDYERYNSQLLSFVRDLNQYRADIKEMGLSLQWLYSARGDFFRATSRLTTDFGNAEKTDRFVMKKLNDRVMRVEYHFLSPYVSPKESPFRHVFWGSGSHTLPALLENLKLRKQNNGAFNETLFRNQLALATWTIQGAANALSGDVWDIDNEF
T2 sequence (Q62351 89-763): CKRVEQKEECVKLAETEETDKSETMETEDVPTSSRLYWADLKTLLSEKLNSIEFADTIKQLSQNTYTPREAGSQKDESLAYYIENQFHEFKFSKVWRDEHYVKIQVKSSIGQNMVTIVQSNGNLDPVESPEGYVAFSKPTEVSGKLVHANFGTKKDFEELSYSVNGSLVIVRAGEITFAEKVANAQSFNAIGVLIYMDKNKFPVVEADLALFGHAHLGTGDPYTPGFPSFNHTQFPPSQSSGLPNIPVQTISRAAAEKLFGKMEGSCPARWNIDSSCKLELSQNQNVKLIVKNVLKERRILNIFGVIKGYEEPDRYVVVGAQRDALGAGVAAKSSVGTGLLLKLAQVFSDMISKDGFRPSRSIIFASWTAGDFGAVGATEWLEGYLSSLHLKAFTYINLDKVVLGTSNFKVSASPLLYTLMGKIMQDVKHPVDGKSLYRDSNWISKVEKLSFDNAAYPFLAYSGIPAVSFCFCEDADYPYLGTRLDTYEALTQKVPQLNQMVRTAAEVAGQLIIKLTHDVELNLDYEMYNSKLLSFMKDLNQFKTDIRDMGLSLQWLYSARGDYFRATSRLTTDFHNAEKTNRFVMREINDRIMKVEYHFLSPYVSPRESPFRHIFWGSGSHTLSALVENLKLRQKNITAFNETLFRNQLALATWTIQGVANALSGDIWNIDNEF

B1: VNAR H11 (VNAR)
VNAR: ARVDQTPQTITKETGESLTINCVLRDNDCALSSTYWYRKKSGSTNEERMTKGGRYVETVNSGSKSFSLRINDLTVEDSGTYRCNVYGLVDCASGMNWIDVYGGGTVVTVNA
notes: Shark VNAR single domain; not shown: FLAG tag of the pOsD2 vector
As to B1, the binding result in experiment [1] and in [2] was “binds” each time.

B2: H01-Fc (bivalent VNAR-Fc fusion protein) (Fc fusion)
chain: ARVDQTPQTITKETGESLTINCVLRDSNCALSSTYWYRKKSGSTKEESISKGGRYVETVNSGSKSFSLRINDLTVEDSGTYRCNVWHDLVWSVCTTDVYGGGTVVTVNAASGAGGGGS
notes: VNAR fused to the N-terminus of the Fc; bivalent; not shown: human IgG1-Fc region (CH2 and CH3 domains) from a modified pFUSE-hIgG1e3-Fc2 plasmid
For the molecule B2, the concentration giving a half-maximal response (EC50 (read off the curve)) in [3] is around 8 nM. The binding result in experiment [4] is on record as “no binding (tested: 10^-6 M)”.

B3: VNAR H01 (VNAR)
VNAR: ARVDQTPQTITKETGESLTINCVLRDSNCALSSTYWYRKKSGSTKEESISKGGRYVETVNSGSKSFSLRINDLTVEDSGTYRCNVWHDLVWSVCTTDVYGGGTVVTVNA
notes: as for B1
In the case of B3, the binding result in experiment [5] is listed as “binds”.

B4: VNAR C02 (VNAR)
VNAR: ARVDQTPQTITKETGESLTINCVLRDNDCALSSTYWYRKKSGSTNEESISKGGRYVETVNSGSKSFSLRINDLTVEDSGTYRCNVYQPPSTESLYWCDVYGGGTAVTVNA
notes: as for B1
Consider B4, for which the binding result in experiment [5] and in [6] was “binds” each time.

B5: VNAR C11 (VNAR)
VNAR: ARVDQTPQTITKETGESLTINCVLRDKDCALSSTSWYRKKSGSTNEESISKGGRYVETVNSGSKSFSLRINDLTVEDSGTYRCNVYARPRPDNLNWCDVYGGGTAVTVNA
notes: as for B1
As to B5, the binding result in experiment [7] and in experiment [8] was “binds” each time.

B6: VNAR A07 (VNAR)
VNAR: ARVDQTPQTITKEEGESLTINCVLRDSSSALASTSWYRKKSGSTREETISKGGRYVETVNSGSKSFSLRINDLTVEDSGTYRCNVYELVEDTSAYEIGVDVYGDGTAVTVNA
notes: Shark VNAR single domain; also called clone A07; not shown: FLAG tag of the pOsD2 vector
B6: the binding result in experiment [5] and in experiment [6] was “binds” throughout.

B7: VNAR G02 (VNAR)
VNAR: ARVDQTPQTITKETGESLTINCVLRDRDCALSSTHWYRKKSGSTNEESISKGGRYVETVDSGSKSFSLRINDLTVEDSGTYRCNVYQSPVGRRWWCDVYGGGTVVTVNA
notes: as for B1
B7: the binding result in experiment [9] and in experiment [10] was “binds” in each case.

B8: VNAR A03 (VNAR)
VNAR: ARVDQTPQTITKETGESLTINCVLRDRDCALSSTHWYRKKSGSTNEESIPKGGRYVETVNSGSKSFSLRINDLTVEDSGTYRCNVYSLTANWWCDVYGGGTVVTVNA
notes: as for B1
On to B8, for which the binding result in [1] and in [11] was “binds” throughout.

B9: F02-hFc (bivalent F02 VNAR-hFc fusion protein) (Fc fusion)
chain: ARVDQTPQTITKETGESLTINCVLRDNDCTLSSTHWYRKKSGSTNEERISKGGRYVETVNSGSKSFSLRINDLTVEDSGTYRCNVYAMTRNWWCDVYGGGTVVTVNAASGAGGGGS
notes: VNAR fused to the N-terminus of the Fc; bivalent, about 75 kDa; also called F02-Fc; F02 Fc; not shown: human IgG1-Fc region (CH2 and CH3 domains) from a modified pFUSE-hIgG1e3-Fc2 plasmid
In the case of B9, the half-maximal effective concentration (EC50) was 34.2 nM in experiment [12] and 34.3 nM in [13]. Also, the “EC50 (read off the curve)” value in experiment [3] is around 20 nM. For the same molecule, the binding result in experiment [4] is recorded as “no binding (tested: 10^-6 M)”.
